Reference: patent publication US7060677B1, “Antimicrobial activity of the first cationic cluster of human lactoferrin” (priority 1999, dated 2006)
“Also recorded” adds a separate entry of the source. Marks after values point to notes of the source that are not given here.

Columns and labels:
bacteria [1] = experiment: Assay for membrane permeability (propidium iodide, FACS), bacteria in general; format: cell-based
Description: (§1) Changes in the membrane permeability of bacteria upon exposure to hLF, hLF^−3N and related peptides were monitored after incubation with propidium iodide (PI; Sigma), using FACS analysis (12, 20). Stock solutions of PI (1 mg/ml of deionized water) were prepared. Approximately 2×10^6 bacteria/ml of PBS-Tw were incubated for various intervals at 37° C., washed, incubated for 5 min with 1 μg of PI/ml (final concentration) and then analyzed with a FACScan (Becton & Dickinson, CA) equipped with a argon-laser at 488 nm. The photomultiplier voltages were routinely set at 500 V for PI fluorescence intensity in the second channel. Data acquisition and analysis were controlled using the Lysis II software.

[2] = system: the various bacteria (L. monocytogenes, antibiotic resistant S. aureus, K. pneumoniae, E. coli); experiment: Assay for antibacterial activity, statements on the various bacteria together; format: cell-based
Description: (§2) Listeria monocytogenes strain EGD. Klebsiella pneumoniae (43816), and Escherichia coli O54 were purchased from the American Type Culture Collection (Rockville, Md.). Antibiotic resistant S. aureus, K. pneumoniae and E. coli were cultured overnight in nutrient broth (Oxoid, Basingstoke, UK) at 37° C., diluted in tryptase soya broth (TSB, Oxoid) and cultured for an additional 2 h in a shaking waterbath at 37° C. L. monocytogenes was cultured overnight in brain heart infusion broth (BHI, Oxoid) at 37° C. diluted and cultured for an additional 2 h in a shaking waterbath at 37° C.
(§3) In short, bacteria were washed with phosphate-buffered saline (PBS) (pH 7.4) and diluted to a concentration of approximately 2×10^6 CFU/ml of phosphate-buffered saline (pH 6.0) supplemented with 0.1% (v/v) Tween-20 (hereafter designated as PBS-Tw). […] At various time intervals (range 0–4 h) after incubation at 37° C. the number of viable bacteria was determined microbiologically. As negative controls, bovine serum albumin (BSA; Sigma) or no peptide were included.

E. coli [3] = experiment: Assay for non-specific esterase activity (SFDA, FACS); format: cell-based, Escherichia coli; conditions: within 1–2 hours after addition
Description: (§4) As an indication of intracellular effects of hLF, hLF^−3N and related peptides (e.g., hLF (1–11) and hLF(21–31) in bacteria, the non-specific esterase activity of bacteria upon exposure to these antimicrobial proteins/peptides was assessed using 5-sulfofluorescein diacetate (SFDA; Molecular Probes, Leiden, The Netherlands) and FACS analysis (21). For these experiments, a stock solution of SFDA (1 mg/ml of ethanol) was prepared. Approximately 2×10^6 CFU of bacteria/ml of PBS-Tw were incubated with various concentrations of hLF, hLF^−3N and hLF related peptides for various intervals at 37° C., washed, incubated with 100 μM of SFDA/ml (final concentration ethanol 20% v/v) for 20 min at room temperature in the dark and then analyzed with a FACScan using the photomultiplier voltage of the first channel set at 700 V.

E. coli [4] = experiment: Assay for membrane permeability (propidium iodide, FACS); format: cell-based, Escherichia coli; conditions: period of analysis 4 h after addition of the protein
Description: as §1

K. pneumoniae = experiment: Assay for antibacterial activity (in vitro killing, viable count); format: cell-based, Klebsiella pneumoniae (43816)
Description: as §2, §3

E. coli [5] = experiment: as above; format: cell-based, Escherichia coli O54; conditions: for CFU of bacteria, E. coli: 4 μM protein, approx. 1 × 10^6 CFU, PBS-Tw (pH 6.0), 3 h at 37° C., mean ± SD of 3–5 experiments
Description: as §2, §3

bacteria [6] = experiment: Assay for non-specific esterase activity (SFDA, FACS), bacteria in general; format: cell-based
[7] = system: antibiotic resistant S. aureus; experiment: Assay for antibacterial activity (in vitro killing, viable count); format: cell-based, Staphylococcus aureus strain 2141; conditions: for CFU of bacteria, antibiotic resistant S. aureus: 4 μM protein, approx. 1 × 10^6 CFU, PBS-Tw (pH 6.0), 3 h at 37° C., mean ± SD of 3–5 experiments
Description: as §2, §3

L. monocytogenes [8] = experiment: Assay for non-specific esterase activity (SFDA, FACS); format: cell-based, Listeria monocytogenes; conditions: within 1–2 hours after addition; FIG. 4: 4 μM
Description: as §4

L. monocytogenes [9] = experiment: Assay for membrane permeability (propidium iodide, FACS); format: cell-based, Listeria monocytogenes; conditions: period of analysis 4 h after addition of the protein
Description: as §1

L. monocytogenes [10] = experiment: Assay for antibacterial activity (in vitro killing, viable count); format: cell-based, Listeria monocytogenes strain EGD; conditions: for CFU of bacteria, L. monocytogenes: 4 μM protein, approx. 1 × 10^6 CFU, PBS-Tw (pH 6.0), 3 h at 37° C., mean ± SD of 3–5 experiments
Description: as §2, §3

[11] = Pharmacology of 99mTc-labeled hLF and peptides by scintigraphy in infected mice; conditions: mouse, in vivo
Description: Lactoferrins and related peptides were labeled with ^99mTechnetium (^99mTc) as described (22, 23). Briefly, 10 μl of a peptide solution (1 mg/ml of HAc) was added to 2 μl of an aseptic solution of 0.5 mg of stannous pyrophosphate/ml (Dept. of Clinical Pharmacy and Toxicology. Leiden University Medical Center (LUMC). Leiden. The Netherlands). Immediately thereafter, 4 μl of a solution of 10 mg of KBH4 (crystalline. Sigma) per ml of 0.1 M NaOH was added. After addition of 0.1 ml of ^99mTc-sodium pertechnetate solution (200 MBq/ml. Mallinckrodt Medical BV, Petten, The Netherlands), the mixture was gently stirred at ambient temperature for 30 min and then was ready for use. Quality control of the labeling was performed by RP-HPLC analysis using a Sep-Pak C18 cartridge (Waters, Milford, Mass.) in 20 ml of 0.01 M HAc. After rinsing with 20 ml of 0.01 M HAc, proteins and peptides were eluted with 2 ml of methanol (Sigma). […]
On the scintigrams, anatomically adjusted regions of interest (ROI) were drawn over the various organs and both thighs providing data about clearance of ^99mTc-peptides and accumulation at the site of infection. […] The amount of radioactivity in the heart was corrected for decay and expressed as a percentage of injected dose (% ID).

[12] = system: antibiotic resistant S. aureus; experiment: Experimental thigh muscle infection; format: in vivo, mice; conditions: FIG. 5
Description: In short, specific pathogen-free, male. Swiss mice weighing 20–25 g (Broekman Institute, Someren, The Netherlands) were anaesthetized with a single intraperitoneal injection of 0.1 ml of saline containing 1 mg fluanisone and 0.03 mg fentanyl citrate (Hypnorm, Janssen Pharmaceutics, Tilburg, The Netherlands). Preceding scintigraphy, a subcutaneous injection of 0.1 ml, containing 0.2 mg diazepam (Valium, Hoffmann-La Roche, Mijdrecht, The Netherlands) was administered. […] As a control, mice were injected with 0.2 ml of saline containing BSA or saline without any peptide. […] Next, the infected thigh muscles were removed and, after weighing, homogenized in 4 ml of PBS. Appropriate dilutions of the homogenates were applied onto diagnostic sensitivity test plates (Oxoid), and the number of colonies counted after an overnight culture at 37° C. Results are expressed as the number of CFUs per gram of infected tissue.

B1: hLF: Natural human lactoferrin (Mr 77,000) purified from the fresh milk of a single donor, N-terminus intact; SEQ ID NO:1 (protein, listed as Homo sapiens)
chain: GRRRRSVQWCAVSQPEATKCFQWQRNMRKVRGPPVSCIKRDSPIQCIQAIAENRADAVTLDGGFIYEAGLAPYKLRPVAAEVYGTERQPRTHYYAVAVVKKGGSFQLNELQGLKSCHTGLRRTAGWNVPIGTLRPFLNWTGPPEPIEAAVARFFSASCVPGADKGQFPNLCRLCAGTGENKCAFSSQEPYFSYSGAFKCLRDGAGDVAFIRESTVFEDLSDEAERDEYELLCPDNTRKPVDKFKDCHLARVPSHAVVARSVNGKEDAIWNLLRQAQEKFGKDKSPKFQLFGSPSGQKDLLFKDSAIGFSRVPPRIDSGLYLGSGYFTAIQNLRKSEEEVAARRARVVWCAVGEQELRKCNQWSGLSEGSVTCSSASTTEDCIALVLKGEADAMSLDGGYVYTAGKCGLVPVLAENYKSQQSSDPDPNCVDRPVEGYLAVAVVRRSDTSLTWNSVKGKKSCHTAVDRTAGWNIPMGLLFNQTGSCKFDEYFSQSCAPGSDPRSNLCALCIGDEQGENKCVPNSNERYYGYTGAFRCLAENAGDVAFVKDVTVLQNTDGNNNEAWAKDLKLADFALLCLDGKRKPVTEARSCHLAMAPNHAVVSRMDKVERLKQVLLHQQAKFGRNGSDCPDKFCLFQSETKNLLFNDNTECLARLHGKTTYEKYLGPQYVAGITNLKKCSTSPLLEACEFLRK
Membrane permeability of the bacteria, proteins (conclusions) (bacteria [1]): without affecting | Speed of killing these bacteria, natural hLF compared with hLF^−3N ([2]; 4 μM, FIGS. 1C–1E, p<0.05): faster (p<0.05) than hLF^−3N | Effect on the number of viable bacteria at 4° C. ([2]; 4° C.): no affect; also recorded: not able to kill bacteria | Potency in killing, natural hLF compared with hLF^−3N ([2]; dose-dependent killing, FIGS. 1A–1B, p<0.05): more potent (p<0.05) than hLF^−3N | Intracellular non-specific esterase activity of E. coli (E. coli [3]): not | Change of the membrane permeability of E. coli (E. coli [4]): not followed by a significant change | CFU of bacteria, K. pneumoniae (K. pneumoniae; 4 μM protein, approx. 1 × 10^6 CFU, PBS-Tw (pH 6.0), 3 h at 37° C., mean ± SD of 3–5 experiments, listed as hLF^3N): 6.8 ± 1.5 × 10^5 CFU | Killing of K. pneumoniae by the protein (in words) (K. pneumoniae; dose-dependent, FIGS. 1A–1E): killed | CFU of bacteria, E. coli (E. coli [5]): 3.0 ± 0.3 × 10^6 CFU | CFU of bacteria, E. coli (E. coli [5]; listed as hLF^3N): 9.5 ± 8.2 × 10^5 CFU | Killing of E. coli by the protein (in words) (E. coli [5]; Table 1, even at concentrations up to 12 μM): not killed | Non-specific esterase activity of the bacteria (conclusions) (bacteria [6]): inhibited | Effect on the non-specific esterase activity at 4° C. (bacteria [6]; 4° C.): no affect; also recorded: not able | CFU of bacteria, antibiotic resistant S. aureus [7]: 6.9 ± 2.1 × 10^4*^,** CFU | CFU of bacteria, antibiotic resistant S. aureus ([7]; listed as hLF^3N): 5.6 ± 1.9 × 10^5 CFU | Killing of antibiotic resistant S. aureus by the protein (in words) ([7]; dose-dependent, FIGS. 1A–1E): killed | Intracellular non-specific esterase activity of L. monocytogenes (L. monocytogenes [8]): inhibited | Change of the membrane permeability of L. monocytogenes (L. monocytogenes [9]): not followed by a significant change | CFU of bacteria, L. monocytogenes (L. monocytogenes [10]): 2.4 ± 0.9 × 10^4*^,** CFU | CFU of bacteria, L. monocytogenes (L. monocytogenes [10]; listed as hLF^3N): 4.8 ± 2.4 × 10^5 CFU | Killing of L. monocytogenes by the protein (in words) (L. monocytogenes [10]; dose-dependent, FIGS. 1A–1E): killed | Amount at the site of infection, hLF compared with hLF^−3N [11]: did not differ | mean t1/2 of removal from the circulation [11]: approximately 19 min | Amount at which maximum effects on viable bacteria were seen ([12]; mice infected with antibiotic resistant S. aureus, 24 h after injection): 1 nmol | Number of viable bacteria in mice infected with antibiotic resistant S. aureus ([12]; within 24 h after intravenous injection, thigh muscle): reduced in a dose-dependent fashion
